PMC4990313 (ACS Catalysis, 2013)

Molecular target: the molecule itself
Assay: crystal structure; sitting drop vapor diffusion at 20 °C, 100 mM KH2PO4/citrate pH 4.0-5.0, PEG 300 35-50%; holo, NADP(H)-soaked (binary) and NADP+ + HMCA-soaked (ternary) crystals; dimer interface analysed with PISA

B1: double bond reductase from Nicotiana tabacum (NtDBR) (enzyme, UniProt Q9SLN8 1-343, looked up)
chain: MAEEVSNKQVILKNYVTGYPKESDMEIKNVTIKLKVPEGSNDVVVKNLYLSCDPYMRSRMRKIEGSYVESFAPGSPITGYGVAKVLESGDPKFQKGDLVWGMTGWEEYSIITPTQTLFKIHDKDVPLSYYTGILGMPGMTAYAGFHEVCSPKKGETVFVSAASGAVGQLVGQFAKMLGCYVVGSAGSKEKVDLLKSKFGFDEAFNYKEEQDLSAALKRYFPDGIDIYFENVGGKMLDAVLVNMKLYGRIAVCGMISQYNLEQTEGVHNLFCLITKRIRMEGFLVFDYYHLYPKYLEMVIPQIKAGKVVYVEDVAHGLESAPTALVGLFSGRNIGKQVVMVSRE
  stoichiometry N: 2
